Test results: the RNAGym collection of RNA variant scans (doi:10.7554/elife.90254)

B1: LINE1-full (parent)
chain: UACGUAGGUGGUUUUCCCCUGAUAGUGCUAAGGGGGCCUGGAAGUUUGGACUGGGCAGAGCUCAACACAGCGUGGCAAAGUGGCUGUGGCUAGACUGCCUCUCUGGAUUCCUCGUCACUCAGCAGGGCAUCUCUGAGAGAAAUGCC

Variants of: B1
Test: self-cleavage, relative activity (ratio to wild type); higher = more cleavage; in vitro, sequencing; the parent is a self-cleaving ribozyme

In order of rising self-cleavage:
1. UACGUAGGUGGUUUUCCCCUGAUAGUGCUAAGGGGGCCAGGAAGUUUGGACUGGGCAGAGCACAACACAGCGUGGCAAAGUGGCUGUGGCUAGACUGCCUCUCUGGAUUCCUCGUCACUCAGCAGGGCAUCUCUGAGAGAAAUGCC [U39A U62A]  0.02
2. UACGUAGGUGGUUUUCCCCUGAUAGUGCUAAGGGGGCCAGGAAGUUUGGACUGGGCAGAGCGCAACACAGCGUGGCAAAGUGGCUGUGGCUAGACUGCCUCUCUGGAUUCCUCGUCACUCAGCAGGGCAUCUCUGAGAGAAAUGCC [U39A U62G]  0.04
3. UACGUAGGUGGUUUUCCCCUGAUAGUGCUAAGGGGGCCAGGAAGUUUGGACUGGGCAGAGCCCAACACAGCGUGGCAAAGUGGCUGUGGCUAGACUGCCUCUCUGGAUUCCUCGUCACUCAGCAGGGCAUCUCUGAGAGAAAUGCC [U39A U62C]  0.05
4. UACGUAGGUGGUUUUCCCCUGAUAGUGCUAAGGGGGCCCGGAAGUUUGGACUGGGCAGAGCUCAACACUGCGUGGCAAAGUGGCUGUGGCUAGACUGCCUCUCUGGAUUCCUCGUCACUCAGCAGGGCAUCUCUGAGAGAAAUGCC [U39C A69U]  0.06
5. UACGUAGGUGGUUUUCCCCUGAUAGUGCUAAGGGGGCCAGGAAGUUUGGACUGGGCAGAGCUCAACACAGCGUGGCAAAGUGGCUGAGGCUAGACUGCCUCUCUGGAUUCCUCGUCACUCAGCAGGGCAUCUCUGAGAGAAAUGCC [U39A U87A]  0.07
6. UACGUAGGUGGUUUUCCCCUGAUAGUGCUAAGGGGGCCAGGAAGUUUGGACUGGGCAGAGCUCAACACAGCGUGGCAAAGUGGCAGUGGCUAGACUGCCUCUCUGGAUUCCUCGUCACUCAGCAGGGCAUCUCUGAGAGAAAUGCC [U39A U85A]  0.11
7. UACGUAGGUGGUUUUCCCCUGAUAGUGCUAAGGGGGCCCGGAAGUUUGGACUGGGCAGAGCUCAACACCGCGUGGCAAAGUGGCUGUGGCUAGACUGCCUCUCUGGAUUCCUCGUCACUCAGCAGGGCAUCUCUGAGAGAAAUGCC [U39C A69C]  0.11
8. UACGUAGGUGGUUUUCCCCUGAUAGUGCUAAGGGGGCCCGGAAGUUUGGACUGGGCAGAGCUCAUCACAGCGUGGCAAAGUGGCUGUGGCUAGACUGCCUCUCUGGAUUCCUCGUCACUCAGCAGGGCAUCUCUGAGAGAAAUGCC [U39C A65U]  0.12
9. UACGUAGGUGGUUUUCCCCUGAUAGUGCUAAGGGGGCCCGGAAGUUUGGACUGGGCAGAGCUCAACUCAGCGUGGCAAAGUGGCUGUGGCUAGACUGCCUCUCUGGAUUCCUCGUCACUCAGCAGGGCAUCUCUGAGAGAAAUGCC [U39C A67U]  0.16
10. UACGUAGGUGGUUUUCCCCUGAUAGUGCUAAGGGGGCCAGGAAGUUUGGACUGGGCAGAGCUCAACACAGCGUGGCAAAGUGGCCGUGGCUAGACUGCCUCUCUGGAUUCCUCGUCACUCAGCAGGGCAUCUCUGAGAGAAAUGCC [U39A U85C]  0.19
11. UACGUAGGUGGUUUUCCCCUGAUAGUGCUAAGGGGGCCCGGAAGUUUGGACUGGGCAGAGCUCGACACAGCGUGGCAAAGUGGCUGUGGCUAGACUGCCUCUCUGGAUUCCUCGUCACUCAGCAGGGCAUCUCUGAGAGAAAUGCC [U39C A64G]  0.24
12. UACGUAGGUGGUUUUCCCCUGAUAGUGCUAAGGGGGCCAGGAAGUUUGGACUGGGCAGAGCUCAACACAGCGUGGCAAAGUGGCGGUGGCUAGACUGCCUCUCUGGAUUCCUCGUCACUCAGCAGGGCAUCUCUGAGAGAAAUGCC [U39A U85G]  0.28
13. UACGUAGGUGGUUUUCCCCUGAUAGUGCUAAGGGGGCCCGGAAGUUUGGACUGGGCAGAGCUCAACGCAGCGUGGCAAAGUGGCUGUGGCUAGACUGCCUCUCUGGAUUCCUCGUCACUCAGCAGGGCAUCUCUGAGAGAAAUGCC [U39C A67G]  0.35
14. UACGUAGGUGGUUUUCCCCUGAUAGUGCUAAGGGGGCCCGGAAGUUUGGACUGGGCGGAGCUCAACACAGCGUGGCAAAGUGGCUGUGGCUAGACUGCCUCUCUGGAUUCCUCGUCACUCAGCAGGGCAUCUCUGAGAGAAAUGCC [U39C A57G]  0.44
15. UACGUAGGUGGUUUUCCCCUGAUAGUGCUAAGGGGGCCAGGAAGUUUGGACUGGGCAGAGCUCAACACAGCGUGGCAAAGUGGCUGUGGCAAGACUGCCUCUCUGGAUUCCUCGUCACUCAGCAGGGCAUCUCUGAGAGAAAUGCC [U39A U91A]  0.56
16. UACGUAGGUGGUUUUCCCCUGAUAGUGCUAAGGGGGCCAGGAAGUUUGGACUGGGCAGAGCUCAACACAGCGUGGCAAAGUGGCUGUGGCUAGACUGCCUCUCUGGAUUCCUCGUCACUCAGCAGGGCAUCUCAGAGAGAAAUGCC [U39A U134A]  0.9
17. UACGUAGGUGGUUUUCCCCUGAUAGUGCUAAGGGGGCCCGGAAGUUUGGACUGGGCAGAGCUCAACACAGCGUGGCAGAGUGGCUGUGGCUAGACUGCCUCUCUGGAUUCCUCGUCACUCAGCAGGGCAUCUCUGAGAGAAAUGCC [U39C A78G]  0.95
18. UACGUAGGUGGUUUUCCCCUGAUAGUGCUAAGGGGGCCAGGAAGUUUGGACUGGGCAGAGCUCAACACAGCGUGGCAAAGUGGCUGUGGCUAGACUGCCUCUCUGGAUCCCUCGUCACUCAGCAGGGCAUCUCUGAGAGAAAUGCC [U39A U109C]  1.1
19. UACGUAGGUGGUUUUCCCCUGAUAGUGCUAAGGGGGCCCGGAAGUUUGGACUGGGCAGAGCUCAACACAGCGUGGCAAGGUGGCUGUGGCUAGACUGCCUCUCUGGAUUCCUCGUCACUCAGCAGGGCAUCUCUGAGAGAAAUGCC [U39C A79G]  1.21
20. UACGUAGGUGGUUUUCCCCUGAUAGUGCUAAGGGGGCCAGGAAGUUUGGACUGGGCAGAGCUCAACACAGCGUGGCAAAGUGGCUGUGGCUAGACUGCCUCUCUGGAUUCCUCGUCACUCAGCAGGGCAUCUCUGAGAGAAAAGCC [U39A U143A]  1.37
21. UACGUAGGUGGUUUUCCCCUGAUAGUGCUAAGGGGGCCCGGAGGUUUGGACUGGGCAGAGCUCAACACAGCGUGGCAAAGUGGCUGUGGCUAGACUGCCUCUCUGGAUUCCUCGUCACUCAGCAGGGCAUCUCUGAGAGAAAUGCC [U39C A43G]  1.38
22. UACGUAGGUGGUUUUCCCCUGAUAGUGCUAAGGGGGCCAGGAAGUUUGGACUGGGCAGAGCUCAACACAGCGCGGCAAAGUGGCUGUGGCUAGACUGCCUCUCUGGAUUCCUCGUCACUCAGCAGGGCAUCUCUGAGAGAAAUGCC [U39A U73C]  1.38
23. UACGUAGGUGGUUUUCCCCUGAUAGUGCUAAGGGGGCCAGGAAGUUUGGACUGGGCAGAGCUCAACACAGCGUGGCAAAGCGGCUGUGGCUAGACUGCCUCUCUGGAUUCCUCGUCACUCAGCAGGGCAUCUCUGAGAGAAAUGCC [U39A U81C]  1.39
24. UACGUAGGUGGUUUUCCCCUGAUAGUGCUAAGGGGGCCAGGAAGUUUGGACAGGGCAGAGCUCAACACAGCGUGGCAAAGUGGCUGUGGCUAGACUGCCUCUCUGGAUUCCUCGUCACUCAGCAGGGCAUCUCUGAGAGAAAUGCC [U39A U52A]  1.4
25. UACGUAGGUGGUUUUCCCCUGAUAGUGCUAAGGGGGCCAGGAAGUUUGGACUGGGCAGAGCUCAACACAGCGUGGCAAAGUGGCUGUGGCUAGACUGCCUCUCUGGAUUCCUCGUCACCCAGCAGGGCAUCUCUGAGAGAAAUGCC [U39A U119C]  1.44
26. UACGUAGGUGGUUUUCCCCUGAUAGUGCUAAGGGGGCCCGGGAGUUUGGACUGGGCAGAGCUCAACACAGCGUGGCAAAGUGGCUGUGGCUAGACUGCCUCUCUGGAUUCCUCGUCACUCAGCAGGGCAUCUCUGAGAGAAAUGCC [U39C A42G]  1.44
27. UACGUAGGUGGUUUUCCCCUGAUAGUGCUAAGGGGGCCAGGAAGUUUGGACUGGGCAGAGCUCAACACAGCGUGGCAAAGUGGCUGUGGCUAGACUGCCUCUCUGGAUACCUCGUCACUCAGCAGGGCAUCUCUGAGAGAAAUGCC [U39A U109A]  1.45
28. UACGUAGGUGGUUUUCCCCUGAUAGUGCUAAGGGGGCCAGGAAGUUUGGACUGGGCAGAGCUCAACACAGCGUGGCAAAGUGGCUGUGGCUAGACUGCCUCUCUGGAUUCCUCGUCACACAGCAGGGCAUCUCUGAGAGAAAUGCC [U39A U119A]  1.46
29. UACGUAGGUGGUUUUCCCCUGAUAGUGCUAAGGGGGCCAGGAAGUUUGGACUGGGCAGAGCUCAACACAGCGUGGCAAAGUGGCUGUGGCUAGACUGCCUCUCUGGAUUCCUCGUCACUCAGCAGGGCACCUCUGAGAGAAAUGCC [U39A U130C]  1.5
30. UACGUAGGUGGUUUUCCCCUGAUAGUGCUAAGGGGGCCAGGAAGAUUGGACUGGGCAGAGCUCAACACAGCGUGGCAAAGUGGCUGUGGCUAGACUGCCUCUCUGGAUUCCUCGUCACUCAGCAGGGCAUCUCUGAGAGAAAUGCC [U39A U45A]  1.54
31. UACGUAGGUGGUUUUCCCCUGAUAGUGCUAAGGGGGCCAGGAAGUUCGGACUGGGCAGAGCUCAACACAGCGUGGCAAAGUGGCUGUGGCUAGACUGCCUCUCUGGAUUCCUCGUCACUCAGCAGGGCAUCUCUGAGAGAAAUGCC [U39A U47C]  1.55
32. UACGUAGGUGGUUUUCCCCUGAUAGUGCUAAGGGGGCCAGGAAGUUUGGACUGGGCAGAGCUCAACACAGCGUGGCAAAGUGGCUGUGGCUAGACUGCCUCUCUGGAUUCCUCGUCACUCAGCAGGGCAUCUCUAAGAGAAAUGCC [U39A G135A]  1.57
33. UACGUAGGUGGUUUUCCCCUGAUAGUGCUAAGGGGGCCAGGAAGCUUGGACUGGGCAGAGCUCAACACAGCGUGGCAAAGUGGCUGUGGCUAGACUGCCUCUCUGGAUUCCUCGUCACUCAGCAGGGCAUCUCUGAGAGAAAUGCC [U39A U45C]  1.58
34. UACGUAGGUGGUUUUCCCCUGAUAGUGCUAAGGGGGCCAGGAAGUUUGGACUGGGCAGAGCUCAACACAGCGUGGCAAAGUGGCUGUGGCUAGACUGCCUCCCUGGAUUCCUCGUCACUCAGCAGGGCAUCUCUGAGAGAAAUGCC [U39A U102C]  1.72
35. UACGUAGGUGGUUUUCCCCUGAUAGUGCUAAGGGGGCCAGGAAGUUUGGACUGGGCAGAGCUCAACACAGCGAGGCAAAGUGGCUGUGGCUAGACUGCCUCUCUGGAUUCCUCGUCACUCAGCAGGGCAUCUCUGAGAGAAAUGCC [U39A U73A]  1.76
36. UACGUAGGUGGUUUUCCCCUGAUAGUGCUAAGGGGGCCCGGAAGUUUGGACUGGGCAGAGCUCAACACAGCGUGGCGAAGUGGCUGUGGCUAGACUGCCUCUCUGGAUUCCUCGUCACUCAGCAGGGCAUCUCUGAGAGAAAUGCC [U39C A77G]  1.93
37. UACGUAGGUGGUUUUCCCCUGAUAGUGCUAAGGGGGCCAGGAAGUUUGGACUGGGCAGAGCUCAACACAGCGUGGCAAAGUGGCUGUGGCUAGACUGCCUCUCUGGAUUCCUCGUCACUCAGCAGGGCAUCUCUUAGAGAAAUGCC [U39A G135U]  1.99
38. UACGUAGGUGGUUUUCCCCUGAUAGUGCUAAGGGGGCCCGGAAGUUUGGACUGGGCAGAGCUCAACACAGCGUGGCAAAGUGGCUGUGGCUAGACUGCCUCUCUGGCUUCCUCGUCACUCAGCAGGGCAUCUCUGAGAGAAAUGCC [U39C A107C]  2.09
39. UACGUAGGUGGUUUUCCCCUGAUAGUGCUAAGGGGGCCCGGAAGUUUGGACUGGGCAGAGCUCAACACAGCGUGGCAACGUGGCUGUGGCUAGACUGCCUCUCUGGAUUCCUCGUCACUCAGCAGGGCAUCUCUGAGAGAAAUGCC [U39C A79C]  2.53
